# Assay results: patent US11802878B2, “Protein sequencing method and reagents” (The Governing Council of the University of Toronto, priority 2009, dated 2023)
# Entries after “also recorded” stand apart in the source; their conditions may differ. Residues, ends and D or L forms follow the SMILES beside them.
# Assays:
# [1] = biological target: T1, ClpS variant W1 (Escherichia coli, UniProt P0A8Q6, L99A/M40A/M62C/P98A/V43C/V65A); assay: Competitive phage ELISA, non-biotinylated peptide competitors against immobilized Wpep; type: binding, E. coli; conditions: FIG. 13 legend; result in words
# T1 construct: ST2 secretion signal (N, cleaved yes); made in house; host or cells: M13 phage display, amplified in E. coli XL1Blue with helper phage M13K07
# Experimental: Error bars represent 95% confidence intervals (n=2).
# Each phage pool was then briefly incubated in wells of a microtitre plate with Wpep ([sequence](biotin)) immobilized on neutravidin. Non-binding phage were washed away, and retained phage were detected using an enzymatically-labeled antibody against the filamentous phage particle and an appropriate colorimetric substrate. The value for W1 binding to neutravidin alone was subtracted from the binding signal from every well to correct for non-specific binding. The ELISA values were then expressed as proportions, relative to the maximum ELISA signal in absence of competitor. Error bars represent 95% confidence intervals (n=2).
# [2] = system: immobilized biotinylated peptide, N-terminal amino acid W (X-SDGMFTAGSLIGK(biotin)); assay: Phage ELISA, binding to immobilized peptide, N-terminal W; conditions: N-terminal W; phage 1X; sub Fab
# Experimental: (§1) Given the discovery that the specificity pocket library was functionally robust, selections against synthetic peptide ligands were carried out using this library. The specificity pocket library was selected against 20 biotinylated peptides, each with a different N-terminal residue atop a common leader sequence (X-SDGMFTAGSLIGK(biotin)) (SEQ ID NO: 4). The peptides were immobilized individually to the bottom wells of a microtiter plate. […] Consequently, ClpS mutant variants that prefer other residues in addition to the ligand ‘bait’ would bind those competing peptides in solution and simply be washed away. Only selective variants that bound to the immobilized target(s) were amplified during each subsequent round of selection.
# (§2) To evaluate the specificity and selectivity of individual clones, both wild-type ClpS and the selected variants' binding to each of the biotinylated peptides independently were tested. The same approach was also used to monitor the progress of the selections and to prioritize particular pools of phage for further investigation.
# (§3) Promising single clones were picked from the selection pools and their specificity was evaluated using the same panel of biotinylated peptides and various amounts of phage supernatant. […] Accordingly, Variant 1 represents a selective N-terminal amino acid capture probe for tryptophan useful for the sequencing methods described herein. Variant 1 also represents a useful scaffold for performing further generation and selection of variants with desirable properties for use as additional N-terminal amino acid capture probes.
# (§4) The selection and ELISA protocols are very similar. Briefly, each well of a 96-well Maxisorp plate was coated overnight at 4° C. with 100 μl of 10 μg/ml neutravidin in PBS, or 1:500 dilution of anti-FLAG antibody. […]
# (§5) For the ELISA readouts, 100 μl of pH adjusted phage supernatant or polyethylene glycol (PEG) precipitated concentrated phage was added to appropriate wells and allowed to bind for 1 hour at 4° C. […] The reaction was stopped by addition of 90 μl of 1M H3PO4 and the absorbance at A450 nm was read.
# [3] = system: immobilized biotinylated peptide, N-terminal amino acid K (X-SDGMFTAGSLIGK(biotin)); assay: Phage ELISA, binding to immobilized peptide, N-terminal K; conditions: N-terminal K; phage 1X; sub Fab
# Experimental: as §1, §2, §3, §4, §5
# [4] = system: immobilized biotinylated peptide, N-terminal amino acid I (X-SDGMFTAGSLIGK(biotin)); assay: Phage ELISA, binding to immobilized peptide, N-terminal I; conditions: N-terminal I; phage 1X; sub Fab
# Experimental: as §1, §2, §3, §4, §5
# [5] = system: immobilized biotinylated peptide, N-terminal amino acid G (X-SDGMFTAGSLIGK(biotin)); assay: Phage ELISA, binding to immobilized peptide, N-terminal G; conditions: N-terminal G; phage 1X; sub Fab
# Experimental: as §1, §2, §3, §4, §5
# [6] = system: immobilized biotinylated peptide, N-terminal amino acid C (X-SDGMFTAGSLIGK(biotin)); assay: Phage ELISA, binding to immobilized peptide, N-terminal C; conditions: N-terminal C; phage 1X; sub Fab
# Experimental: as §1, §2, §3, §4, §5
# [7] = system: immobilized biotinylated peptide, N-terminal amino acid N (X-SDGMFTAGSLIGK(biotin)); assay: Phage ELISA, binding to immobilized peptide, N-terminal N; conditions: N-terminal N; phage 1X; sub Fab
# Experimental: as §1, §2, §3, §4, §5
# [8] = system: panel of 20 biotinylated peptides, each with a different N-terminal residue (X-SDGMFTAGSLIGK(biotin)); assay: Phage ELISA specificity profile over the panel of biotinylated peptides; type: binding; conditions: phage displayed; result in words; listed as ClpS Variant 1
# Experimental: as §1
# To evaluate the specificity and selectivity of individual clones, both wild-type ClpS and the selected variants' binding to each of the biotinylated peptides independently were tested. […]
# Promising single clones were picked from the selection pools and their specificity was evaluated using the same panel of biotinylated peptides and various amounts of phage supernatant. […]
# as §5
# [9] = system: immobilized biotinylated peptide, N-terminal amino acid Y (X-SDGMFTAGSLIGK(biotin)); assay: Phage ELISA, binding to immobilized peptide, N-terminal Y; conditions: N-terminal Y; phage 1X; sub Fab
# Experimental: as §1, §2, §3, §4, §5
# [10] = system: immobilized biotinylated peptide, N-terminal amino acid L (X-SDGMFTAGSLIGK(biotin)); assay: Phage ELISA, binding to immobilized peptide, N-terminal L; conditions: N-terminal L; phage 1X; sub Fab
# Experimental: as §1, §2, §3, §4, §5
# [11] = system: immobilized biotinylated peptide, N-terminal amino acid H (X-SDGMFTAGSLIGK(biotin)); assay: Phage ELISA, binding to immobilized peptide, N-terminal H; conditions: N-terminal H; phage 1X; sub Fab
# Experimental: as §1, §2, §3, §4, §5
# [12] = system: immobilized biotinylated peptide, N-terminal amino acid R (X-SDGMFTAGSLIGK(biotin)); assay: Phage ELISA, binding to immobilized peptide, N-terminal R; conditions: N-terminal R; phage 1X; sub Fab
# Experimental: as §1, §2, §3, §4, §5
# [13] = system: immobilized biotinylated peptide, N-terminal amino acid M (X-SDGMFTAGSLIGK(biotin)); assay: Phage ELISA, binding to immobilized peptide, N-terminal M; conditions: N-terminal M; phage 1X; sub Fab
# Experimental: as §1, §2, §3, §4, §5
# [14] = system: immobilized biotinylated peptide, N-terminal amino acid E (X-SDGMFTAGSLIGK(biotin)); assay: Phage ELISA, binding to immobilized peptide, N-terminal E; conditions: N-terminal E; phage 1X; sub Fab
# Experimental: as §1, §2, §3, §4, §5
# [15] = system: immobilized biotinylated peptide, N-terminal amino acid Q (X-SDGMFTAGSLIGK(biotin)); assay: Phage ELISA, binding to immobilized peptide, N-terminal Q; conditions: N-terminal Q; phage 1X; sub Fab
# Experimental: as §1, §2, §3, §4, §5
# [16] = system: immobilized biotinylated peptide, N-terminal amino acid V (X-SDGMFTAGSLIGK(biotin)); assay: Phage ELISA, binding to immobilized peptide, N-terminal V; conditions: N-terminal V; phage 1X; sub Fab
# Experimental: as §1, §2, §3, §4, §5
# [17] = system: immobilized biotinylated peptide, N-terminal amino acid P (X-SDGMFTAGSLIGK(biotin)); assay: Phage ELISA, binding to immobilized peptide, N-terminal P; conditions: N-terminal P; phage 1X; sub Fab
# Experimental: as §1, §2, §3, §4, §5
# [18] = system: immobilized biotinylated peptide, N-terminal amino acid A (X-SDGMFTAGSLIGK(biotin)); assay: Phage ELISA, binding to immobilized peptide, N-terminal A; conditions: N-terminal A; phage 1X; sub Fab
# Experimental: as §1, §2, §3, §4, §5
# [19] = system: immobilized biotinylated peptide, N-terminal amino acid F (X-SDGMFTAGSLIGK(biotin)); assay: Phage ELISA, binding to immobilized peptide, N-terminal F; conditions: N-terminal F; phage 1X; sub Fab
# Experimental: as §1, §2, §3, §4, §5
# [20] = system: immobilized biotinylated peptide, N-terminal amino acid S (X-SDGMFTAGSLIGK(biotin)); assay: Phage ELISA, binding to immobilized peptide, N-terminal S; conditions: N-terminal S; phage 1X; sub Fab
# Experimental: as §1, §2, §3, §4, §5
# [21] = system: immobilized biotinylated peptide, N-terminal amino acid D (X-SDGMFTAGSLIGK(biotin)); assay: Phage ELISA, binding to immobilized peptide, N-terminal D; conditions: N-terminal D; phage 1X; sub Fab
# Experimental: as §1, §2, §3, §4, §5
# [22] = system: immobilized biotinylated peptide, N-terminal amino acid T (X-SDGMFTAGSLIGK(biotin)); assay: Phage ELISA, binding to immobilized peptide, N-terminal T; conditions: N-terminal T; phage 1X; sub Fab
# Experimental: as §1, §2, §3, §4, §5
molecule,measurement,setting,value
CC[C@H](C)[C@H](NC(=O)[C@H](CC(C)C)NC(=O)[C@H](CO)NC(=O)CNC(=O)[C@H](C)NC(=O)[C@@H](NC(=O)[C@H](Cc1ccccc1)NC(=O)[C@H](CCSC)NC(=O)CNC(=O)[C@H](CC(=O)O)NC(=O)[C@H](CO)NC(=O)[C@@H](N)Cc1c[nH]c2ccccc12)[C@@H](C)O)C(=O)O [Wpep] (H-WSDGMFTAGSLI-OH; N-terminus and C-terminus assumed),effective competitor for binding ClpS Variant 1,[1],effective competitor
"Variant 1: engineered ClpS variant, SEQ ID NO: 2, binds N-terminal tryptophan selectively (protein) KPPSMYKVILVNDDYTPAEFCIDVLQKFFSYDVERATQLCLAAHYQGKAICGVFTAEVAETKVAMVNKYARENEHAALCTLEKA",phage ELISA binding signal,[2],2.636
same,phage ELISA binding signal,[3],0.129
same,phage ELISA binding signal,[4],−0.023
same,phage ELISA binding signal,[5],0.028
same,phage ELISA binding signal,[6],0.066
same,phage ELISA binding signal,[7],0.052
same,binding specificity / preference for N-terminal amino acids,[8],selectively binds polypeptides with the N-terminal amino acid tryptophan; also recorded: bound specifically to tryptophan alone; also recorded: selectively binds tryptophan N-terminal amino acids
same,phage ELISA binding signal,[9],0.045
same,phage ELISA binding signal,[10],0.069
same,phage ELISA binding signal,[11],−0.001
same,phage ELISA binding signal,[12],0.04
same,phage ELISA binding signal,[13],−0.003
same,phage ELISA binding signal,[14],0.032
same,phage ELISA binding signal,[15],0.065
same,phage ELISA binding signal,[16],0.032
same,phage ELISA binding signal,[17],0.062
same,phage ELISA binding signal,[18],0.018
same,phage ELISA binding signal,[19],0.083
same,phage ELISA binding signal,[20],−0.001
same,phage ELISA binding signal,[21],−0.017
same,phage ELISA binding signal,[22],−0.005
